Fewer inactive variants are shown than the library holds.
B1: TPR 5TU (parent)
chain: GGAUCUUCUCGAUCUAACAAAAAAGACAAAUCUGCCACAAAGCUUGAGAGCAUCUUCGGAUGCAGAGGCGGCAGCCUUCGGUGGCGCGAUAGCGCCAACGUUCUCAACUAUGACACGCAAAACGCGUGCUCCGUUGAAUGGAGUUUAUCAUG

Variants of: B1
Experiment: polymerase ribozyme fitness, log enrichment relative to wild type (log ratio); higher = more active; in vitro selection for triplet polymerase activity
In short: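 Fitness is a logarithmic measure of how a genotype enriched relative to the wild type, with replicate averages weighted by inverse variance. The logarithm uses base 2, and enrichment came from Illumina sequencing of input and output libraries. Those libraries were PCR-built, transcribed mutants of each subunit of a heterodimeric triplet polymerase ribozyme, passed through one triplicate in vitro selection round that included frozen incubation at −7 °C, gel excision of extended constructs and streptavidin-bead capture. Genotypes were kept only if they had ≥10 input reads and ≥1 read per output.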

First: GGAUCUUCUCGAUGUAACAAAAAAGACAAAUCUGCCACAGAGCUUGAGAGCAUCUUCGGAUGCAGAGGCGGCGGCCUUCGGUGGUGCGAUAGCGCCAACGUUCUCAACUAUGACACGCAAAACGCGUGCUCCGUUGAAAGGAGUUUAUCAUG [C14G A40G A73G C85U U139A]
Second: GGAUCUUCUCGAUGUAACAAAAAAGACAAAUCUGCCCCAAAGCUUGAGAGCAUCUUCGGAUGCAGAGGCGGCAGCCUUCGGUGGCGCGAUAGCGCCAACGUUCUCAACUAUGACACGCAAAACGCGUGCUCCGUUGAAUGGAGUUUAUCAUG [C14G A37C]
The “polymerase ribozyme fitness (log ratio)” value of the first is lower: at most -4.2 for the first, -3.05 for the second.

First: GGAUCUUCUCGAUGUAACAAAAAAGACAAAUCUGCCACAUAGUUUAAGACCAUCUUCGGAUGCAGAGGCGGCAGCCUUCGGUGGUGCGAUAGCGCCAACGUUCUCAACUAUAACACGCAAAACGCGUGCUCCGUUGAAUGGAGUUUAUCAUG [C14G A40U C43U G46A G50C C85U G112A]
Second: GGAUCUUCUCGAUGUAACAAAAAAGACAAGUCUGCCACAAAGCUUCAGAGCAUCUUCGGAUGCAGAGGCGGCAGCCUUCGGUGGCGCGAUAGCGUCAACGUUCUCAACUAUGACACGCAAAACGCGUGCUCCGUUGAAUGGAGUUUAUCAUG [C14G A30G G46C C95U]
The “polymerase ribozyme fitness (log ratio)” value of the first is lower: at most -4.2 for the first, -4.17 for the second.

First: GGAUCUUCUCGAUGUAACAAAAAAGACACAUCUGCCACAAAGCUUGAGAGCAACUUCGGAUGCAGAGGCGGCAGCCUUCGGUGGCGCGAUAGCGUCAACGUUCUCAACUAUGAUACGCAAAACGCGUGCUCCGUUGAAUAGAGUUUAUCAUG [C14G A29C U53A C95U C114U G140A]
Second: GGAUCUUCUCGAUGUAACAAAAAAGACAAUUCUGCCACAACGUUUGAGACCAUCGUCGGAUGCAGAGGCGGCAGGCUUCGGUGGCGCGAUAGCGCCAACGUUCUCAACUAUGACACGUCAAACGCGUGCUCCGUUGAAUGGAGUUUAUCAUG [C14G A30U A41C C43U G50C U55G C75G C118U A119C]
The “polymerase ribozyme fitness (log ratio)” value of the first is higher: -3.68 for the first, at most -4.2 for the second.

GGAUCUUCUCGAUGUAACAAAAAAGACAAAUCUGCCACUAAGCUUGAGAGCAUCGUCGGAUGCAGAGGCGGCAGCCUUCGGUGGCGCGAUAGCGUCAACGUUCUCAACUAUGACACGCAAAACGCGUGCUCCGUUGAAUGGAGUUUAUCAUG [C14G A39U U55G C95U] and GGAUCUUCUCGAUGUAACAAAAAAGACAAAUCUGCCACAAUGCUUGAGAGCAUCUUCGGAUCCAGAGGCGGCAGCCUUCGGUGGCGCGAUAGCGUAAACGUUCUCAACUAUUACACGCAAAACGCGUGCUCCGUUGAAUGGUGUUAAUCGUG [C14G A41U G62C C95U C96A G112U A142U U146A A150G] cannot be ordered by “polymerase ribozyme fitness (log ratio)” value: at most -4.2 for the first, at most -4.2 for the second.

GGAUCUUCUCGAUGUAACAAAAAAGACAAAUCUGCCACACAGCUUGAGAGCAUCAUCGGAUGCAGAGGCGGCAGCCUUCGCUGGCGCGAUAGCGCCAACGUUCUCAACUAUGACACGCAAAACGCAUGCUCCGUUGAAGAGAGUUUAUCAUG [C14G A40C U55A G81C G126A U139G G140A] and GGAUCUUCUCGAUGUAACAAAAAAGACAAUUCGGCCACAAAGCUUGAGCGCUUCUUCGGAUGCAGAGGCGGGGGCCUUCGGUGGCGUGAUAGCGCCAACGUUCUCAACUAUGACACGCAAAACGCGUGCUCCGUUGAAUGGAGGUUAUCAUG [C14G A30U U33G A49C A52U C72G A73G C87U U144G] cannot be ordered by “polymerase ribozyme fitness (log ratio)” value: at most -4.2 for the first, at most -4.2 for the second.

GGAUCUUCUCGAUGUAACAAAAAAGACAAAUCUGCCACUAAGCUUGAGAGCAUCUUCAGAGGCAGAGGCGGCAGCCUUCGGUGGUGCGAUAGCGUCAACGUUCUCACCUAUGACACGCAAAACGCGUGCUCCGUUGAAUGCAGUUCAUCAUG [C14G A39U G58A U61G C85U C95U A107C G141C U146C] and GGAUCUUCUCGAUGUAACAAAAAAGACUAAUCUGCCACAAAGCUUGAGAGCAUCGUCGGAUGCAGAGGCGGCAGCCUUCGGUGGCGCGUUAGCGCAAACGUUCUCAACUAUGACACGCAAAACGCAUCCUCCGUUGAAUCGAGUUUAUCAUG [C14G A28U U55G A89U C96A G126A G128C G140C] cannot be ordered by “polymerase ribozyme fitness (log ratio)” value: at most -4.2 for the first, at most -4.2 for the second.

Compared with GGAUCUUCUCGAUGUAACAAAAAAGACAAAUCUGCCACACAGCUUGAGAGCAUCUUGGGAUGCAGAGGCGGCAGCCUUCGGUGGCGCGAUAGCGCCAACGUUCUCAACUAUGACACGCAAAACGCGUGCUCCGUUGAAUGGAGUUUAUCAUG [C14G A40C C57G], GGAUCUUCUCGAUGUAACAAAAAAGACAAUUCUGCCACAAAGCUUGAGAGCAUCUUCGGAAGCAGAGGCGGCAGCCUUCGGUGGCGCGAUAACGCCAAAGUUCUCAACUAUGACACGCAAAACGCGUGCUCCGUUGAAUGGAGUUUAUCAUG [C14G A30U U61A G92A C99A] is lower in “polymerase ribozyme fitness (log ratio)” value: -2.31 for the first, at most -4.2 for the second.

GGAUCUUCUCGAUGUAACAAAAAAGACAAUUCUGCCACAAAGCUUGAGAGCAUCUUCGGAAGCAGAGGCGGCAGCCUUCGGUGGCGCGAUAACGCCAAAGUUCUCAACUAUGACGCGCAAAACGCGUGCUCCGUUGAAUGGAGUUUAUCAUG [C14G A30U U61A G92A C99A A115G] and GGAUCUUCUCGAUGUAACAAAAAAGACAAAUCUGCCACAGCGCUUGAGAGCAUUUUCGGAUGCAGAGGCGGCAGCCUUCGGUGGGGCGAUAGCGCCAAUGUUCUCAACUAUGACACGCAAAACGCGUGCUCCGUUGAAUGGAGUUUAUCAUG [C14G A40G A41C C54U C85G C99U] cannot be ordered by “polymerase ribozyme fitness (log ratio)” value: at most -4.2 for the first, at most -4.2 for the second.

GGAUCUUCUCGAUGUAACAAAAAAGACAAAUCUGCCACAUAGCUUGAGAGCAUCUUCGGAUGCAGAGGCGGCGGCCUUCGGUGGCGCGAUAGCGCCAACGUUCCCAACUAUGACACGCAAAACGCGUGCUCCGUUGAAUGGAGUUUAUCAUG [C14G A40U A73G U104C] and GGAUCUUCUCGAUGUAACAAAAAAGACAGAUCUGCCACAAAGCUUGAGAGCAUUUUCGGAUGCAGAGGCGGCAGCCUUCGGUGGCGCGAUAGCGCCAACGUUCUCAACUAUGACACGCAAAACGCGUGCUCGGUUGAAUGGAGUUUAUCAUG [C14G A29G C54U C132G] cannot be ordered by “polymerase ribozyme fitness (log ratio)” value: at most -4.2 for the first, at most -4.2 for the second.

In the case of GGAUCUUCUCGAUGUAACAAAAAAGACGAAUCUGCCACAAAGCUUGAGAGCAACUUCGGAUGUAGAGGCGGCAGCCUUCGGUGGCGCGCUAGCGCCAACGUUCUCUACUAUGACACGCAAAACGCAUGCUCCGUUGAAUGAAGUUUAUCAUG [C14G A28G U53A C63U A89C A106U G126A G141A], the “polymerase ribozyme fitness (log ratio)” value is reported as at most -4.2.

Source: the RNAGym collection of RNA variant scans (doi:10.1073/pnas.2313332121)
